Assay results published in the supplement of paper PMC10567573.

B1: PKD2L1 (parent)
chain: TLARCAKDILGFAVMFFIVFFAYA

Variants of: B1
Assay: protein stability index of a GFP-peptide fusion (GPS, HEK-293T) (PSI 1-6); higher = more stable
Conditions: c terminus: a fixed tail appended
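Also: lentivirally expressed fusions sorted by FACS into six bins by GFP to DsRed ratio, PSI derived from sequencing read proportions per bin multiplied by bin number.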

Variant | protein stability index
G11T | 3.47
G11V | 1.74
G11F | 1.22
G11I | 2.79
G11Y | 2.38
G11H | 3.32
G11E | 3.51
G11K | 3.33
G11A | 1.41
G11S | 3.06
G11L | 1.73
G11Q | 2.35
G11N | 2.4
G11C | 2.06
G11W | 1.06
G11D | 2.28
G11M | 1.48
G11R | 2.72
G11P | 1.81
K7I | 2.36
K7P | 2.84
K7M | 2.47
K7V | 4.08
K7E | 2.36

Variant | protein stability index
K7D | 3.17
K7A | 2.16
K7W | 2.57
K7Y | 3.79
K7R | 2.29
K7F | 2.78
K7T | 2.83
K7G | 2.45
K7Q | 3.71
K7H | 3.13
A3G | 1.71
A3I | 4.3
A3Q | 2.7
A3D | 2.56
A3C | 2.83
A3H | 2.4
A3K | 2.74
A3E | 3.11
A3N | 1.53
A3W | 1.87
A3V | 1.94
A3Y | 4.87
A3T | 3.62
A3L | 1.75

Variant | protein stability index
A3P | 2.64
A3R | 1.81
I9S | 2.6
I9D | 1.64
I9H | 2.46
I9K | 1.22
I9F | 3.86
I9E | 1.46
I9W | 2.43
I9Y | 1.94
I9A | 2.44
I9C | 3.32
I9V | 2.24
I9N | 1.69
I9T | 1.58
I9R | 1.74
I9Q | 1.84
I9P | 1.93
I9L | 1.58
I9M | 3.48
I9G | 2.66
D8A | 2.77
D8L | 2.47
D8V | 2.33

Variant | protein stability index
D8Q | 1.51
D8C | 2.56
D8M | 2.76
D8G | 2.75
D8S | 1.98
D8Y | 2.7
D8W | 2.88
D8T | 3.06
D8E | 2.21
D8P | 2.25
D8F | 2.33
D8H | 2.66
D8R | 2.06
D8K | 2.07
D8I | 2.56
D8N | 1.91
F12P | 2.87
F12C | 1.87
F12G | 2.56
F12T | 1.89
F12N | 2.55
F12L | 3.16
F12R | 2.02
F12E | 1.44

Variant | protein stability index
F12W | 3.56
F12D | 2.24
F12I | 1.49
F12S | 1.89
F12V | 2.42
F12A | 1.42
F12Q | 2.1
F12H | 1.93
F12K | 2.33
L10F | 1.91
L10I | 2.42
L10V | 2.92
L10T | 3.28
L10N | 1.82
L10W | 2.49
L10Y | 2.38
L10M | 2.61
L10C | 2.79
L10Q | 3.08
L10S | 1.84
L10A | 2.38
L10G | 2.03
L10R | 2.54
L10H | 1.83

Variant | protein stability index
L10P | 3.1
R4N | 2.79
R4F | 2.68
R4G | 3.84
R4A | 2.72
R4V | 4.36
R4Y | 3.28
R4W | 3.31
R4Q | 2.37
R4P | 2.65
R4I | 2.64
R4C | 2.28
R4L | 3.07
R4K | 2.6
C5K | 2.48
C5N | 1.9
C5L | 2.78
C5V | 2.5
C5R | 2.01
C5E | 2.09
C5Y | 2.22
C5S | 2.27
C5M | 3.55
C5I | 3

Variant | protein stability index
C5T | 4.06
C5A | 2.49
C5G | 2.59
C5D | 2.61
C5P | 1.71
C5F | 4.37
C5Q | 2.29
C5H | 1.6
A6F | 2.64
A6V | 2.95
A6T | 3
A6C | 2.87
A6H | 2.59
A6E | 3.58
A6W | 2.75
A6Y | 3.06
A6K | 3.02
A6L | 4.57
A6G | 1.59
A6M | 2.09
A6I | 2.69
A6N | 3.44
A6P | 3.24
